“And” between values parts separate entries of the source, which are not always exact repeats. Equal values may be shown once. Read-outs that look alike come from different tables or passages of the source.
What was measured:
synthetic oligopeptides = assay type: biochemical; conditions: for Specific activity (unit/mg): 4 mM oligopeptide, pH 7.5, 37° C.
Met-tagged onconase = experiment: In vivo catalytic activity of MetAPs co-expressed with Met-tagged onconase in E. coli BL21(DE3); N-terminus by Edman degradation; assay type: cell-based
Procedure, shortened: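 Wild-type or mutant (Tyr168, Met206, Gln233) E. coli MetAP co-expressed with Met-tagged onconase in E. coli BL21(DE3). Insoluble onconase denatured, renatured and purified, or secreted via pelB and purified from medium. Stored in 20 mM sodium phosphate pH 7.0 for N-terminal pyroglutamate formation; N-terminus sequenced by Edman degradation.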

[1] = substrate MAA-Onc, in vivo in E. coli
[2] = substrate MAG-Onc, in vivo in E. coli
[3] = substrate MAP-Onc, in vivo in E. coli
[4] = substrate MLA-Onc, in vivo in E. coli
[5] = substrate MLG-Onc, in vivo in E. coli
[6] = substrate MLH-Onc, in vivo in E. coli
[7] = substrate MLL-Onc, in vivo in E. coli
[8] = substrate MLN-Onc, in vivo in E. coli
[9] = substrate MLS-Onc, in vivo in E. coli
[10] = substrate MLV-Onc, in vivo in E. coli
[11] = substrate MQA-Onc, in vivo in E. coli
[12] = substrate MQM-Onc, in vivo in E. coli
[13] = substrate MQN-Onc, in vivo in E. coli
[14] = substrate MQT-Onc, in vivo in E. coli

B1: MetAP-*TG (protein)
chain: AISIKTPEDIEKMRVAGRLAAEVLEMIEPYVKPGVSTGELDRICNDYIVNEQHAVSACLGYHGYPKSVCISINEVVCHGIPDDAKLLKDGDIVNIDVTVIKDGFHGDTSKMFIVGKPTIMGERLCRITQESLYLALRMVKPGINLREIGAAIQKFVEAEGFSVVREYCGHGIGRGFHEEPQVLHYDSRETNVVLKPGMTFTIEPTVNAGKKEIRTMKDGWTVKTKDRSLSAGYEHTIVVTDNGCEILTLRKDDTIPAIISHDE
- In vitro catalytic activity (synthetic oligopeptides; oligopeptides ranging from tetra- to dodecapeptides with Ala at the penultimate site): high catalytic activity
- Specific activity (unit/mg) (synthetic oligopeptides; substrate MADY (SEQ ID NO:7)): 72 ± 10 unit/mg
- Specific activity (unit/mg) (synthetic oligopeptides; substrate MADYLT (SEQ ID NO:8)): 116 ± 4 unit/mg
- Specific activity (unit/mg) (synthetic oligopeptides; substrate MQDYLT (SEQ ID NO:9)): 0.42 ± 0.02 unit/mg
- Specific activity (unit/mg) (synthetic oligopeptides; substrate […] (SEQ ID NO:5)): 73 ± 15 unit/mg
- Specific activity (unit/mg) (synthetic oligopeptides; substrate […] (SEQ ID NO:6)): 0.59 ± 0.07 unit/mg
- Lower efficiency of Met removal with MetAP and target on separate vectors (Met-tagged onconase; MQD-initiated onconase or GST, pET29b/pET22b versus same vector): 10–15 % less
- Catalytic activity (%): percent of penultimate residue removed (Met-tagged onconase; [1]): 25%
- Catalytic activity (%): removal of N-terminal Met (Met-tagged onconase; [1]): 100%
- Catalytic activity (%): removal of N-terminal Met (Met-tagged onconase; substrate MAD-Onc, in vivo in E. coli): 99% and 100%
- Catalytic activity (%): removal of N-terminal Met (Met-tagged onconase; substrate MAE-Onc, in vivo in E. coli): 96%
- Catalytic activity (%): removal of N-terminal Met (Met-tagged onconase; substrate MAF-Onc, in vivo in E. coli): 100%
- Catalytic activity (%): percent of penultimate residue removed (Met-tagged onconase; [2]): 57%
- Catalytic activity (%): removal of N-terminal Met (Met-tagged onconase; [2]): 80%
- Catalytic activity (%): removal of N-terminal Met (Met-tagged onconase; substrate MAK-Onc, in vivo in E. coli): 100%
- Catalytic activity (%): removal of N-terminal Met (Met-tagged onconase; substrate MAL-Onc, in vivo in E. coli): 100%
- Catalytic activity (%): removal of N-terminal Met (Met-tagged onconase; substrate MAM-Onc, in vivo in E. coli): 96%
- Catalytic activity (%): removal of N-terminal Met (Met-tagged onconase; substrate MAN-Onc, in vivo in E. coli): 100%
- Catalytic activity (%): percent of penultimate residue removed (Met-tagged onconase; [3]): 38%
- Catalytic activity (%): removal of N-terminal Met (Met-tagged onconase; [3]): 72%
- Catalytic activity (%): removal of N-terminal Met (Met-tagged onconase; substrate MAQ-Onc, in vivo in E. coli): 97%
- Catalytic activity (%): removal of N-terminal Met (Met-tagged onconase; substrate MAR-Onc, in vivo in E. coli): 94%
- Catalytic activity (%): removal of N-terminal Met (Met-tagged onconase; substrate MAV-Onc, in vivo in E. coli): 100%
- Catalytic activity (%): removal of N-terminal Met (Met-tagged onconase; substrate MDD-Onc, in vivo in E. coli): 68%
- Catalytic activity (%): removal of N-terminal Met (Met-tagged onconase; substrate MED-Onc, in vivo in E. coli): 33%
- Catalytic activity (%): removal of N-terminal Met (Met-tagged onconase; substrate MFA-Onc, in vivo in E. coli): 2%
- Catalytic activity (%): removal of N-terminal Met (Met-tagged onconase; substrate MFD-Onc, in vivo in E. coli): 5%
- Catalytic activity (%): removal of N-terminal Met (Met-tagged onconase; substrate MGD-Onc, in vivo in E. coli): 95%
- Catalytic activity (%): removal of N-terminal Met (Met-tagged onconase; substrate MHD-Onc, in vivo in E. coli): 92%
- Catalytic activity (%): removal of N-terminal Met (Met-tagged onconase; substrate MIA-Onc, in vivo in E. coli): 36%
- Catalytic activity (%): removal of N-terminal Met (Met-tagged onconase; substrate MID-Onc, in vivo in E. coli): 22%
- Catalytic activity (%): removal of N-terminal Met (Met-tagged onconase; substrate MKA-Onc, in vivo in E. coli): 2%
- Catalytic activity (%): removal of N-terminal Met (Met-tagged onconase; substrate MKD-Onc, in vivo in E. coli): 3%
- Catalytic activity (%): percent of penultimate residue removed (Met-tagged onconase; [4]): 100(100) %
- Catalytic activity (%): removal of N-terminal Met (Met-tagged onconase; [4]): 100(100) %
- Catalytic activity (%): removal of N-terminal Met (Met-tagged onconase; substrate MLD-Onc, in vivo in E. coli): 86% and 90%
- Catalytic activity (%): percent of penultimate residue removed (Met-tagged onconase; [5]): 100(100) %
- Catalytic activity (%): removal of N-terminal Met (Met-tagged onconase; [5]): 100(100) %
- Catalytic activity (%): percent of penultimate residue removed (Met-tagged onconase; [6]): 36%
- Catalytic activity (%): removal of N-terminal Met (Met-tagged onconase; [6]): 75%
- Catalytic activity (%): percent of penultimate residue removed (Met-tagged onconase; [7]): 24%
- Catalytic activity (%): removal of N-terminal Met (Met-tagged onconase; [7]): 88%
- Catalytic activity (%): removal of N-terminal Met (Met-tagged onconase; substrate MLM-Onc, in vivo in E. coli): 100%
- Catalytic activity (%): percent of penultimate residue removed (Met-tagged onconase; [8]): 58%
- Catalytic activity (%): removal of N-terminal Met (Met-tagged onconase; [8]): 92%
- Catalytic activity (%): removal of N-terminal Met (Met-tagged onconase; substrate MLP-Onc, in vivo in E. coli): 5%
- Catalytic activity (%): percent of penultimate residue removed (Met-tagged onconase; [9]): 59%
- Catalytic activity (%): removal of N-terminal Met (Met-tagged onconase; [9]): 82%
- Catalytic activity (%): removal of N-terminal Met (Met-tagged onconase; substrate MLT-Onc, in vivo in E. coli): 91%
- Catalytic activity (%): percent of penultimate residue removed (Met-tagged onconase; [10]): 27%
- Catalytic activity (%): removal of N-terminal Met (Met-tagged onconase; [10]): 76%
- Catalytic activity (%): removal of N-terminal Met (Met-tagged onconase; substrate MMD-Onc, first Met, in vivo in E. coli): 100%
- Catalytic activity (%): percent of penultimate residue removed (Met-tagged onconase; substrate MMD-Onc, second Met, in vivo in E. coli): 73%
- Catalytic activity (%): removal of N-terminal Met (Met-tagged onconase; substrate MND-Onc, in vivo in E. coli): 85%
- Catalytic activity (%): removal of N-terminal Met (Met-tagged onconase; substrate MPD-Onc, in vivo in E. coli): 93%
- Catalytic activity (%): percent of penultimate residue removed (Met-tagged onconase; [11]): 100(100) %
- Catalytic activity (%): removal of N-terminal Met (Met-tagged onconase; [11]): 100(100) %
- Catalytic activity (%): removal of N-terminal Met (Met-tagged onconase; substrate MQD-Onc, in vivo in E. coli): 91% and 90%
- Catalytic activity (%): removal of N-terminal Met (Met-tagged onconase; substrate MQD-Onc, in vivo in E. coli, listed as MetAP-M206T-Q233G): 91%
- Catalytic activity (%): removal of N-terminal Met (Met-tagged onconase; substrate MQDWL (SEQ ID NO:10)-Onc, solubility −, same vector): 91%
- Catalytic activity (%): removal of N-terminal Met (Met-tagged onconase; substrate MQDWL (SEQ ID NO:10)-Onc, solubility −, target in pET22b co-transformed with MetAP in pET29b): 80%
- Catalytic activity (%): removal of N-terminal Met (Met-tagged onconase; substrate MQE-Onc, in vivo in E. coli): 71%
- Catalytic activity (%): removal of N-terminal Met (Met-tagged onconase; substrate MQF-Onc, in vivo in E. coli): 80%
- Catalytic activity (%): removal of N-terminal Met (Met-tagged onconase; substrate MQK-Onc, in vivo in E. coli): 78%
- Catalytic activity (%): percent of penultimate residue removed (Met-tagged onconase; [12]): 59%
- Catalytic activity (%): removal of N-terminal Met (Met-tagged onconase; [12]): 100%
- Catalytic activity (%): percent of penultimate residue removed (Met-tagged onconase; [13]): 65%
- Catalytic activity (%): removal of N-terminal Met (Met-tagged onconase; [13]): 100%
- Catalytic activity (%): removal of N-terminal Met (Met-tagged onconase; substrate MQP-Onc, in vivo in E. coli): 25%
- Catalytic activity (%): removal of N-terminal Met (Met-tagged onconase; substrate MQR-Onc, in vivo in E. coli): 83%
- Catalytic activity (%): percent of penultimate residue removed (Met-tagged onconase; [14]): 26%
- Catalytic activity (%): removal of N-terminal Met (Met-tagged onconase; [14]): 76%
- Catalytic activity (%): removal of N-terminal Met (Met-tagged onconase; substrate MQW-Onc, in vivo in E. coli): 95%
- Catalytic activity (%): removal of N-terminal Met (Met-tagged onconase; substrate MRA-Onc, in vivo in E. coli): 2%
- Catalytic activity (%): removal of N-terminal Met (Met-tagged onconase; substrate MRD-Onc, in vivo in E. coli): 2%
- Catalytic activity (%): removal of N-terminal Met (Met-tagged onconase; substrate MSD-Onc, in vivo in E. coli): 99%
- Catalytic activity (%): removal of N-terminal Met (Met-tagged onconase; substrate MTD-Onc, in vivo in E. coli): 85%
- Catalytic activity (%): removal of N-terminal Met (Met-tagged onconase; substrate MVD-Onc, in vivo in E. coli): 80%
- Catalytic activity (%): removal of N-terminal Met (Met-tagged onconase; substrate MWA-Onc, in vivo in E. coli): 2%
- Catalytic activity (%): removal of N-terminal Met (Met-tagged onconase; substrate MWD-Onc, in vivo in E. coli): 2%
- Catalytic activity (%): removal of N-terminal Met (Met-tagged onconase; substrate MWD-Onc, in vivo in E. coli, listed as *TG): inactive
- Catalytic activity (%): removal of N-terminal Met (Met-tagged onconase; substrate MYA-Onc, in vivo in E. coli): 8%
- Catalytic activity (%): removal of N-terminal Met (Met-tagged onconase; substrate MYD-Onc, in vivo in E. coli): 1%
- Catalytic activity (%): removal of N-terminal Met (Met-tagged onconase; substrate MYD-Onc, in vivo in E. coli, listed as *TG): inactive
